Data set [1] addresses T1, N (ancestral) (SARS-CoV-2 (Wuhan-Hu-1), UniProt P0DTC9 1-419). The experiment in a line: SV-AUC; […], pH 7.50 ([…], pH 7.4; temperature not given. As to conditions: protein: recombinant; tags: 6xHis-TEV, cleaved; chain copies: 2; single strand.
For data set [2], the target named is T1, N (ancestral). The experiment in a line: SV-AUC, mass photometry; […], pH 7.50 ([…], pH 7.4; temperature not given. To be noted: protein: recombinant; tags: 6xHis-TEV, cleaved; chain copies: 2; hairpin.

This note sets out measurements from article PMC12753105.

Turning to TTTTTTTTTT (ssDNA) [T10], in the data set with N (ancestral) [1], the binding result is given as “binds”.

For the molecule ACGUGGCUUUGGAGACUCCGUGGAGGAGGUCUUAUCAGAGGCACGU (structured_RNA) [SL7], in the data set with N (ancestral) [2], the binding result was “binds”.
